Here are results for 3 molecules from US20220144921A1 (US Dept. of Health and Human Services, published 2022).

Some results are limits rather than exact numbers.

T1: recombinant non-structural protein 1 of DENV2 (Dengue virus serotype 2, UniProt P29990 776-1127)
T1 construct: domain: NS1; also called rNS1 DENV2
T1 sequence: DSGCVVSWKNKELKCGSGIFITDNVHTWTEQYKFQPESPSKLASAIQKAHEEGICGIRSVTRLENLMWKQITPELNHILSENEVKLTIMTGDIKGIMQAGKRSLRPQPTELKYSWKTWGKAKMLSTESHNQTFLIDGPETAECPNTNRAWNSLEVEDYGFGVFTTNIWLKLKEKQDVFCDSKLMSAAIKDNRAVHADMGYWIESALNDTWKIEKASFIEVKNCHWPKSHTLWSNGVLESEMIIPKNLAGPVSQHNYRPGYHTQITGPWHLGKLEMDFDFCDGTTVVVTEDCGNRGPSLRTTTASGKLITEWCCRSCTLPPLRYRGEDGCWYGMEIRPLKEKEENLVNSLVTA

T2: recombinant non-structural protein 1 of DENV3 (Dengue virus serotype 3, UniProt Q6YMS4 774-1125)
T2 construct: domain: NS1; also called rNS1 DENV3
T2 sequence: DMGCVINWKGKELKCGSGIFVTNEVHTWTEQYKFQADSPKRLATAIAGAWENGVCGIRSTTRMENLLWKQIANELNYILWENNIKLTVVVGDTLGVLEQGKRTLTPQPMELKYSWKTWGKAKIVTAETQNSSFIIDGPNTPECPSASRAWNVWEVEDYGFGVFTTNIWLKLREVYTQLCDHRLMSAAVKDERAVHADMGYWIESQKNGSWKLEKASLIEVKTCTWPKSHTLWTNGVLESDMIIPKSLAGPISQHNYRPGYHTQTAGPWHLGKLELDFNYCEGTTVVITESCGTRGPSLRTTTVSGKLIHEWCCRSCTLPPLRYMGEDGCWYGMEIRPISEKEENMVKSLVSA

T3: recombinant non-structural protein 1 of West Nile Virus (West Nile Virus, UniProt P06935 788-1139)
T3 construct: domain: NS1; also called rNS1 WNV
T3 sequence: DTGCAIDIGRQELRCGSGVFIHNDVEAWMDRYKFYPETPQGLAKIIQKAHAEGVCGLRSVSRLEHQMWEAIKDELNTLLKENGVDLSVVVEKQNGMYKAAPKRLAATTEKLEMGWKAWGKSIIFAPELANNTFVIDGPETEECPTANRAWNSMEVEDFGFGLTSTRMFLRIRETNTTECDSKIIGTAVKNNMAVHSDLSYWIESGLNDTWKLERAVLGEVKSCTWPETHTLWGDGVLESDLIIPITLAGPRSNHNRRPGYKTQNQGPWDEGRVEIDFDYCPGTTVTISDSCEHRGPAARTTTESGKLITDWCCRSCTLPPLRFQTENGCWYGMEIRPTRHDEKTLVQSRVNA

T4: recombinant non-structural protein 1 of DENV1 (Dengue virus serotype 1, UniProt P17763 776-1127)
T4 construct: domain: NS1; also called rNS DENV1; rNS1 DENV1
T4 sequence: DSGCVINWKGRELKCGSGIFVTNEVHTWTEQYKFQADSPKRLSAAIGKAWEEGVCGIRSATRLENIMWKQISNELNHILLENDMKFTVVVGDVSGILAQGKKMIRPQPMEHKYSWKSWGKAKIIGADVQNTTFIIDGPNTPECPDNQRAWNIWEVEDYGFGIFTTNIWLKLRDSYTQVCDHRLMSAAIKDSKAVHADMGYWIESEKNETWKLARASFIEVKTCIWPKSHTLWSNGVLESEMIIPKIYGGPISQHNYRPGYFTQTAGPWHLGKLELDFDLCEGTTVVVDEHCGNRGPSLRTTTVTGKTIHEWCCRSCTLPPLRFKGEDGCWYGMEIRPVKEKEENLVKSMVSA

T5: native NS1 on the surface of DENV1-infected Vero cells (Dengue virus serotype 1, UniProt P17763 776-1127)
T5 construct: domain: NS1; also called DENV1 (Cell-Based ELISA)
T5 sequence: T4 sequence

T6: native NS1 on the surface of DENV2-infected Vero cells (Dengue virus serotype 2, UniProt P29990 776-1127)
T6 construct: domain: NS1; also called DENV2 (Cell-Based ELISA)
T6 sequence: T1 sequence

T7: native NS1 on the surface of DENV3-infected Vero cells (Dengue virus serotype 3, UniProt Q6YMS4 774-1125)
T7 construct: domain: NS1; also called DENV3 (Cell-Based ELISA)
T7 sequence: T2 sequence

T8: native NS1 in culture supernatant of DENV1-infected Vero cells (Dengue virus serotype 1, UniProt P17763 776-1127)
T8 construct: domain: NS1
T8 sequence: T4 sequence

T9: native NS1 in culture supernatant of DENV2-infected Vero cells (Dengue virus serotype 2, UniProt P29990 776-1127)
T9 construct: domain: NS1
T9 sequence: T1 sequence

T10: native NS1 in culture supernatant of DENV3-infected Vero cells (Dengue virus serotype 3, UniProt Q6YMS4 774-1125)
T10 construct: domain: NS1
T10 sequence: T2 sequence

B1: MAb 8A6F2 (antibody, V domains shown)
VH: DVQLQESGPDLVKPSQSLSLTCTVTGYSITSGYNWHWIRQFPGNKLEWMGYIHYSGGTNYNPSLKSRISITRDTSKNQFFLQLNSVTTEDTATYYCARRTGTVPFAYWGQGTLVTVSA
VL: EIVLTQSPALMAASPGEKVTITCSVSSSISSSNLHWYQQKSETSPKPWIYGTSNLASGVPVRFSGSGSGTSYSLTISSMEAEDAATYYCQQWSSYPLTFGGGTKLEIK
B2: MAb 3H7A9 (antibody, V domains shown)
VH: EVQLQQSGAELVKPGASVKLSCTASGFNIKDTYMHWVKQRPEQGLEWIGRIDPANGNTQYGPKFQGKATITADTSSNTAYLQLSSLTSEDTAVYYCARGGIFYYYGSSYSYAMDYWGQGTSVTVSS
VL: DIQMTQTTSSLSASLGDRVTISCRASQDISNYLNWYQQKPDGTVTLLIYYTSRLHSGVPSRFSGSGSGTDYSLTISNLEQEDIATYFCQQGNTLPRTFGGGTKLEIK
B3: MAb 6D4B10 (antibody, V domains shown)
VH: EVQLQQSGPELVKPGASVKMSCKASGYTFTSYVMHWVKQKPGQGLEWIGYLNPYNDDTKYNEKFKGKATLTSDKSSSTAYMELSSLTSEDSAVYYCAYGPPYALDYWGQGTSVTVSS
VL: QIVLTQSPAIMTASLGERVTMTCTASSSVSSSYLHWYQQKPGSSPKLWIYSTSNLASGVPARFSGSGSGTSYSLTISSMEAEDAATYYCHQYHRSPYTFGGGTKLEIK

One test concerns the target T1, recombinant non-structural protein 1 of …. Briefly: iELISA, FIG. 4 legend.
Turning to B1, the “OD value (450 nm)” value is below 0 OD.
B2: the “OD value (450 nm)” value was below 0 OD.
For B3, the “OD value (450 nm)” value is below 0 OD.

For another test, the target named is T2, recombinant non-structural protein 1 of …. The test is described as follows: iELISA, FIG. 4 legend.
With B1, the “OD value (450 nm)” value is below 0 OD.
The same measure, in the same setting: in the case of B2 it was below 0 OD; in that of B3, below 0 OD.

A further test deals with T3, recombinant non-structural protein 1 of …. The test is described as follows: iELISA, FIG. 4 legend.
Regarding B1, the “OD value (450 nm)” value is below 0 OD.
Still for that read-out and setting: in the case of B2 it was below 0 OD; in that of B3, below 0 OD.

In a further test the target is T11, recombinant non-structural protein 1 of Yellow Fever Virus (Yellow Fever Virus, UniProt P03314 779-1130).
T11 construct: domain: NS1; also called rNS1 YFV
The test is described as follows: iELISA, FIG. 4 legend.
Regarding B1, the “OD value (450 nm)” value is below 0 OD.
Same read-out and setting: in the case of B2 it was below 0 OD.
In the case of B3, the “OD value (450 nm)” value was below 0 OD.

The target of a further test is T12, recombinant SUMO protein (small-ubiquitin-like modifier).
T12 construct: also called SUMO* tag
The test is described as follows: iELISA, FIG. 4 legend.
As to B1, the “OD value (450 nm)” value was below 0 OD.
On to B2, for which the “OD value (450 nm)” value is below 0 OD.
Turning to B3, the “OD value (450 nm)” value is below 0 OD.

For a further test, the target named is T4, recombinant non-structural protein 1 of …. The test is described as follows: iELISA, FIG. 4 legend.
With B1, the “OD value (450 nm)” value is below 0 OD.
The same measure, in the same setting: with B2 the figure was below 0 OD; with B3, below 0 OD.

For the next test, the target named is T1, recombinant non-structural protein 1 of …. The test is described as follows: iELISA on recombinant protein.
Consider B1, for which the binding result is recorded as “no binding”.
As for B2, the binding result is “no binding”.
B3: the binding result is listed as “no binding”.

The target in a further test is T2, recombinant non-structural protein 1 of …. The test is described as follows: iELISA on recombinant protein.
Regarding B1, the binding result was “no binding”.
The same measure, in the same setting: in the case of B2 it was “no binding”; in that of B3, “no binding”.

The next test concerns the target T3, recombinant non-structural protein 1 of …. The test is described as follows: iELISA on recombinant protein.
For B1, the binding result was “no binding”.
The same measure, in the same setting: in the case of B2 it was “no binding”; in that of B3, “no binding”.

Another test deals with T11, recombinant non-structural protein 1 of …. Briefly: iELISA on recombinant protein.
As for B1, the binding result is recorded as “no binding”.
Take B2: the binding result is given as “no binding”.
For the molecule B3, the binding result is listed as “no binding”.

For the next test, the target named is T4, recombinant non-structural protein 1 of …. The test is described as follows: iELISA on recombinant protein.
For B1, the binding result is reported as “no binding”.
Turning to B2, the binding result is “no binding”.
Turning to B3, the binding result is “no binding”.

For the next test, the target named is T5, native NS1 on the surface of …. Briefly: cell-based ELISA on infected Vero cells.
With B1, the binding result is listed as “no binding”.
For the molecule B2, the binding result is reported as “no binding”.
The same measure, in the same setting: in the case of B3 it was “no binding”.

A further test deals with T6, native NS1 on the surface of …. Briefly: cell-based ELISA on infected Vero cells.
As for B1, the binding result is on record as “no binding”.
Consider B2, for which the binding result is listed as “no binding”.
The same measure, in the same setting: with B3 the entry was “no binding”.

The next test concerns the target T7, native NS1 on the surface of …. The test is described as follows: cell-based ELISA on infected Vero cells.
As for B1, the binding result is listed as “no binding”.
For the molecule B2, the binding result was “no binding”.
On to B3, for which the binding result is given as “no binding”.

The target of another test is T8, native NS1 in culture supernatant of …. Briefly: iELISA on Vero cell culture supernatant.
For B1, the binding result was “no binding”.
Consider B2, for which the binding result is reported as “no binding”.
Turning to B3, the binding result is “no binding”.

For the next test, the target named is T9, native NS1 in culture supernatant of …. The test is described as follows: iELISA on Vero cell culture supernatant.
B1: the binding result was “no binding”.
Same read-out and setting: in the case of B2 it was “no binding”; in that of B3, “no binding”.

A further test concerns the target T10, native NS1 in culture supernatant of …. Briefly: iELISA on Vero cell culture supernatant.
Turning to B1, the binding result is given as “no binding”.
Same read-out and setting: in the case of B2 it was “no binding”.
As to B3, the binding result was “no binding”.
